Experiment [1] concerns the target Vps75 from which native cysteine residues had been removed (yeast (S. cerevisiae in the introduction)) (UniProt P53853). As to the kind of experiment: cross-linking; Vps75 titrated with H3-H4 at 200 mM NaCl, 20 mM HEPES pH 7.5; 30 min room temperature, 2 mM BS2G for 1 h, SDS-PAGE.
Experiment [2] shares this target. As to the kind of experiment: SEC-MALS + cross-linking; partial DTSSP cross-linking at 200 mM NaCl, 20 mM HEPES pH 7.5 (Vps75 alone, or Vps75 dimers and H3-H4 dimers 1:1, 10 uM); SEC-MALS on Superdex 200 10/300 GL at 400 mM NaCl, 20 mM HEPES-KOH pH 7.5; fractions on SDS-PAGE with and without DTT. On the technique in general: In gel filtration, larger molecules generally elute earlier.

For experiment [3] the target is unchanged. In words: cross-linking; cross-linking analysis of Vps75 with Asf1 and H3-H4, SDS-PAGE (Supplementary Figure S4).

Several values for one entry are separate records, joined by “and”; a condition that tells them apart may be missing. Equal entries are not always repeated.

Turning to “Vps75 from which native cysteine residues had been removed (from UniProt P53853 1-264) (natural protein)”, the stoichiometry N (commonly a count of units in the complex or per binding partner) was 4 in experiment [1]; 4 and 2 in experiment [2].

On to “histones H3–H4 from which native cysteine residues had been removed (from UniProt P84233 1-136; P62799 1-103) (complex)”, for which the stoichiometry N (Vps75 monomers per H3-H4 dimer) in experiment [3] came out at 2.

(Values after PMC5291247.)
